Publication PMC2685083

Assays:
[1] = target: myc-tagged β^+/his6-tagged β^C heterodimer (E. coli) (UniProt P0A988); assay: SPR
[2] = target: β^+–δ1 complex (his6-tagged β^+ homodimer with one tightly bound δ) (E. coli) (UniProt P0A988); assay: SPR

Row | Substance | Kd [1] [nM] | koff [1] [s⁻¹] | kon [1] [M⁻¹ s⁻¹] | off rate relative to that from β^+ [1] [fold] | stoichiometry N [1] | Kd [2] [nM]
1 | α catalytic subunit of Pol III (from UniProt P10443 1-1160) (enzyme) | 172 | 0.0125 | 72700 | – | – | –
2 | DnaX clamp loader complex, γ3δδ′χψ form (from UniProt P06710-2;P28630;P28631;P28905;P28632) | – | – | – | 2 | – | –
3 | δ subunit of the DnaX clamp loader complex (from UniProt P28630 1-343) (natural protein) | 15.6 | – | – | – | 1 | 160
